Earlier results on 3 substances are cited in publication PMC12250766.

For data set [1], the target named is PSGL-1 (Homo sapiens) (UniProt Q14242).
Data set [2] shares this target. The source holds these as a separate data set.
In data set [3] the target is PSGL-1 model glycosulfopeptide (Homo sapiens) (UniProt Q14242).
Data set [4] has the same target. This is another data set of the same source.
The target in data set [5] is PSGL-1 model glycopeptide (Homo sapiens) (UniProt Q14242).

Where two headings read alike, the source gives them in different places.

By Kd is commonly meant the constant that tells how readily two partners part at equilibrium. Regarding E-selectin (from UniProt P16581), the Kd in the data set with PSGL-1 (Homo sapiens) [1] was 15 µM.

In the case of L-selectin (from UniProt P14151), in the data set with PSGL-1 (Homo sapiens) [2], the Kd was 5 µM.

As for P-selectin (from UniProt P16109), the Kd in data set [3] is 6 µM; in data set [4] it was 0.65 µM; in data set [5], 25 µM.
